± gives the uncertainty stated by the source.
Test: abundance fitness (aPCA) (normalised: wild type 0, dead -1); higher = more abundant; growth selection in yeast, the domain comes from the species named
Details: Homo sapiens

Substance | abundance fitness
Transcription factor SOX-4 R92M, Q06945 | 0.128 ± 0.11
Transcription factor SOX-4 K95Q, Q06945 | 0.115 ± 0.14

Same assay, conditions: Saccharomyces cerevisiae (strain ATCC 204508 / S288c)

Substance | abundance fitness
E3 ubiquitin-protein ligase RSP5 T357L, P39940 | -0.488 ± 0.08
E3 ubiquitin-protein ligase RSP5 F349L, P39940 | -0.648 ± 0.055
E3 ubiquitin-protein ligase RSP5 Q366S, P39940 | -0.008 ± 0.077
E3 ubiquitin-protein ligase RSP5 P334W, P39940 | -1.01 ± 0.071
E3 ubiquitin-protein ligase RSP5 N353T, P39940 | -0.113 ± 0.059
E3 ubiquitin-protein ligase RSP5 D361A, P39940 | -0.269 ± 0.053
E3 ubiquitin-protein ligase RSP5 H352N, P39940 | 0.049 ± 0.085
E3 ubiquitin-protein ligase RSP5 W337H, P39940 | -0.539 ± 0.076
E3 ubiquitin-protein ligase RSP5 Y348A, P39940 | -0.936 ± 0.073
E3 ubiquitin-protein ligase RSP5 P334R, P39940 | -1.03 ± 0.05
E3 ubiquitin-protein ligase RSP5 G345W, P39940 | -0.466 ± 0.049
E3 ubiquitin-protein ligase RSP5 W359G, P39940 | -0.441 ± 0.045
E3 ubiquitin-protein ligase RSP5 G325C, P39940 | -0.008 ± 0.071
E3 ubiquitin-protein ligase RSP5 W337I, P39940 | -0.23 ± 0.085
E3 ubiquitin-protein ligase RSP5 G325I, P39940 | 0.018 ± 0.092
E3 ubiquitin-protein ligase RSP5 S328G, P39940 | -0.113 ± 0.042
E3 ubiquitin-protein ligase RSP5 T356L, P39940 | -0.143 ± 0.047
E3 ubiquitin-protein ligase RSP5 R355N, P39940 | -0.008 ± 0.069
E3 ubiquitin-protein ligase RSP5 A347G, P39940 | -0.043 ± 0.047
E3 ubiquitin-protein ligase RSP5 F341N, P39940 | 0.189 ± 0.11
E3 ubiquitin-protein ligase RSP5 T354H, P39940 | 0.187 ± 0.14
E3 ubiquitin-protein ligase RSP5 Q339A, P39940 | -0.143 ± 0.047
E3 ubiquitin-protein ligase RSP5 R363V, P39940 | -0.437 ± 0.046
E3 ubiquitin-protein ligase RSP5 E332V, P39940 | -0.07 ± 0.047
E3 ubiquitin-protein ligase RSP5 D361E, P39940 | -0.266 ± 0.053
E3 ubiquitin-protein ligase RSP5 R355I, P39940 | -0.35 ± 0.086

Substance | abundance fitness
E3 ubiquitin-protein ligase RSP5 A347V, P39940 | -0.044 ± 0.046
E3 ubiquitin-protein ligase RSP5 T327L, P39940 | -0.049 ± 0.055
E3 ubiquitin-protein ligase RSP5 T327D, P39940 | 0.121 ± 0.07
E3 ubiquitin-protein ligase RSP5 G324S, P39940 | 0.097 ± 0.092
E3 ubiquitin-protein ligase RSP5 R363D, P39940 | -0.725 ± 0.067
E3 ubiquitin-protein ligase RSP5 G324A, P39940 | 0.004 ± 0.084
E3 ubiquitin-protein ligase RSP5 F341V, P39940 | 0.019 ± 0.043
E3 ubiquitin-protein ligase RSP5 A347K, P39940 | 0.008 ± 0.053
E3 ubiquitin-protein ligase RSP5 T326V, P39940 | -0.008 ± 0.051
E3 ubiquitin-protein ligase RSP5 T326K, P39940 | 0.068 ± 0.051
E3 ubiquitin-protein ligase RSP5 T358K, P39940 | -0.658 ± 0.12
E3 ubiquitin-protein ligase RSP5 T342Q, P39940 | -0.226 ± 0.067
E3 ubiquitin-protein ligase RSP5 G325P, P39940 | -0.252 ± 0.072
E3 ubiquitin-protein ligase RSP5 G336E, P39940 | -0.562 ± 0.059
E3 ubiquitin-protein ligase RSP5 T357M, P39940 | -0.33 ± 0.094
E3 ubiquitin-protein ligase RSP5 Q366L, P39940 | 0.24 ± 0.11
E3 ubiquitin-protein ligase RSP5 P334Y, P39940 | -0.627 ± 0.14
E3 ubiquitin-protein ligase RSP5 Y348K, P39940 | -0.666 ± 0.072
E3 ubiquitin-protein ligase RSP5 E344S, P39940 | -0.168 ± 0.048
E3 ubiquitin-protein ligase RSP5 P343L, P39940 | -0.021 ± 0.048
E3 ubiquitin-protein ligase RSP5 L330N, P39940 | 0.054 ± 0.08
E3 ubiquitin-protein ligase RSP5 E338H, P39940 | -0.349 ± 0.1
E3 ubiquitin-protein ligase RSP5 R340C, P39940 | 0.064 ± 0.059
E3 ubiquitin-protein ligase RSP5 W337Q, P39940 | -0.637 ± 0.11
E3 ubiquitin-protein ligase RSP5 N353M, P39940 | -0.132 ± 0.062
E3 ubiquitin-protein ligase RSP5 Y348V, P39940 | -0.585 ± 0.048

Substance | abundance fitness
E3 ubiquitin-protein ligase RSP5 R340L, P39940 | 0.078 ± 0.055
E3 ubiquitin-protein ligase RSP5 T327Q, P39940 | -0.112 ± 0.057
E3 ubiquitin-protein ligase RSP5 E344A, P39940 | -0.144 ± 0.045
E3 ubiquitin-protein ligase RSP5 G329L, P39940 | -0.129 ± 0.047
E3 ubiquitin-protein ligase RSP5 T326H, P39940 | -0.051 ± 0.078
E3 ubiquitin-protein ligase RSP5 G336S, P39940 | -0.471 ± 0.061
E3 ubiquitin-protein ligase RSP5 S328C, P39940 | 0.054 ± 0.079
E3 ubiquitin-protein ligase RSP5 Y348M, P39940 | -0.354 ± 0.092
E3 ubiquitin-protein ligase RSP5 R346M, P39940 | 0.222 ± 0.067
E3 ubiquitin-protein ligase RSP5 R340E, P39940 | -0.01 ± 0.063
E3 ubiquitin-protein ligase RSP5 R346N, P39940 | 0.185 ± 0.085
E3 ubiquitin-protein ligase RSP5 E332K, P39940 | -0.046 ± 0.064
E3 ubiquitin-protein ligase RSP5 T342R, P39940 | -0.738 ± 0.044
E3 ubiquitin-protein ligase RSP5 H352K, P39940 | -0.176 ± 0.074
E3 ubiquitin-protein ligase RSP5 P343D, P39940 | 0.099 ± 0.064
E3 ubiquitin-protein ligase RSP5 Q365C, P39940 | 0.077 ± 0.089
E3 ubiquitin-protein ligase RSP5 G329P, P39940 | -0.113 ± 0.052
E3 ubiquitin-protein ligase RSP5 V360L, P39940 | -0.03 ± 0.044
E3 ubiquitin-protein ligase RSP5 D351T, P39940 | -0.966 ± 0.073
E3 ubiquitin-protein ligase RSP5 L330K, P39940 | -0.023 ± 0.056
E3 ubiquitin-protein ligase RSP5 L333H, P39940 | -0.451 ± 0.07
E3 ubiquitin-protein ligase RSP5 P334K, P39940 | -0.86 ± 0.071
E3 ubiquitin-protein ligase RSP5 V360R, P39940 | -0.207 ± 0.041
E3 ubiquitin-protein ligase RSP5 D351P, P39940 | -1.24 ± 0.15
E3 ubiquitin-protein ligase RSP5 P362S, P39940 | -1.09 ± 0.065
E3 ubiquitin-protein ligase RSP5 E332F, P39940 | -0.165 ± 0.12

Substance | abundance fitness
E3 ubiquitin-protein ligase RSP5 V350G, P39940 | -0.891 ± 0.046
E3 ubiquitin-protein ligase RSP5 N353W, P39940 | -0.44 ± 0.061
E3 ubiquitin-protein ligase RSP5 S335V, P39940 | -0.141 ± 0.051
E3 ubiquitin-protein ligase RSP5 R346E, P39940 | 0.414 ± 0.06
E3 ubiquitin-protein ligase RSP5 D361C, P39940 | -0.183 ± 0.1
E3 ubiquitin-protein ligase RSP5 T327P, P39940 | -0.258 ± 0.068
E3 ubiquitin-protein ligase RSP5 Q366R, P39940 | 0.117 ± 0.053
E3 ubiquitin-protein ligase RSP5 G331I, P39940 | -0.071 ± 0.068
E3 ubiquitin-protein ligase RSP5 S328K, P39940 | 0.083 ± 0.055
E3 ubiquitin-protein ligase RSP5 E338Y, P39940 | -0.632 ± 0.075
E3 ubiquitin-protein ligase RSP5 P343F, P39940 | -0.417 ± 0.49
E3 ubiquitin-protein ligase RSP5 F341C, P39940 | 0.051 ± 0.069
E3 ubiquitin-protein ligase RSP5 T342K, P39940 | -0.824 ± 0.058
E3 ubiquitin-protein ligase RSP5 G329C, P39940 | 0.077 ± 0.082
E3 ubiquitin-protein ligase RSP5 E332A, P39940 | 0.03 ± 0.051
E3 ubiquitin-protein ligase RSP5 W337P, P39940 | -0.883 ± 0.061
E3 ubiquitin-protein ligase RSP5 R363H, P39940 | -0.398 ± 0.066
E3 ubiquitin-protein ligase RSP5 S335F, P39940 | -0.205 ± 0.11
E3 ubiquitin-protein ligase RSP5 V360P, P39940 | -0.871 ± 0.061
E3 ubiquitin-protein ligase RSP5 E338R, P39940 | -0.626 ± 0.045
E3 ubiquitin-protein ligase RSP5 V350N, P39940 | -0.49 ± 0.095
E3 ubiquitin-protein ligase RSP5 Q339M, P39940 | -0.008 ± 0.069
E3 ubiquitin-protein ligase RSP5 P362I, P39940 | -0.791 ± 0.12

Source: the Human Domainome abundance scans (Beltran et al. 2025)
